Results taken from US20230273213A1, “PEPTIDE DESIGN AND GALECTIN-3 INHIBITORS” (City of Hope, priority 2020, published 2023).

Legend:
[1] = target: T1, GST-Galectin-3 (Homo sapiens, UniProt P17931); assay: Galectin-3 mediated agglutination assay on LAX56 pre-B ALL cells; format: cell-based
T1 construct: Full-length human GST-Galectin-3 (hereafter named GST-Gal3) in pGEX2T was previously described; made in house
Description: Cells, culture and agglutination assay. LAX56 human pre-B ALL cells were routinely co-cultured with mitomycin-C inactivated OP9 stromal cells. These previously described primary leukemia cell grew directly out from a relapse bone marrow sample (36, 37). For agglutination assays, cells were harvested, washed once in α-MEM medium, resuspended in 10 ml X-VIVO 15 medium (Lonza) and incubated at 37° C. for 24 h remove the Galectin-3 produced by OP9 stromal cells. For the assay, ALL cells were resuspended in X-VIVO 15 medium at a concentration of 1×10^6/ml and seeded at 2×10^5/200 μl cells into wells. […] Peptides, if included, were preincubated for 5 minutes with the recombinant proteins and added at different concentrations as indicated in the figures. TD139 was purchased from MedChemExpress and used at 100 μM. Phase contrast images were taken after 1-2 hours. Agglutination was defined as aggregates containing >10 cells per cluster. 2-13 images from different areas were taken and evaluated for cell clusters per condition. Biological data were graphed with GraphPad Prism software (version8.3.1). Values represent mean±SEM of the number of aggregates scored per independent image.
We used two approaches to test this experimentally. Mutation of critical residues in that pocket could abolish binding to the IDR and the agglutination activity of Galectin-3. Also, a peptide could potentially fit in the shallow pocket and inhibit the IDR interaction. A classical test for carbohydrate-binding activity of a lectin including Galectin-3 is an agglutination assay (36, 38, 42). In this assay, recombinant Galectin-3 is tested for its ability to promote lattice formation by binding in a multivalent manner to glycoproteins located on the cell surface: when cell surface glycoprotein targets are located on different cells, carbohydrate binding combined with multimer formation causes cellular agglutination. […] Thus we used an agglutination assay in which recombinant Galectin-3 is added to patient-derived precursor B-acute lymphoblastic leukemia cells (pre-B ALL) as a readout for Galectin-3 lattice-forming activity.

[2] = target: T2, Galectin-3 CTD (Homo sapiens, UniProt P17931); assay: 15N-1H HSQC NMR titration of Galectin-3 CTD with peptide-3; format: binding
T2 construct: We generated a Galectin-3 CTD construct including amino acids 117-250; GST (N, cleaved yes); made in house; host or cells: E. coli BL21(DE3), M9 medium with 15N ammonium chloride
Description: Galectin-3 CTD construct for NMR. The Galectin-3 C-terminal domain construct was generated using the same methods described above for the mutants. The protein includes Galectin-3 amino acids P117-1250 as well as residual attached glycine and serine residues after thrombin cleavage. Single colonies were grown overnight in LB+ amp, collected by centrifugation then inoculated in M9 media with ammonium-^15N chloride (Sigma) and grown for 3-4 hours. After induction of protein production with IPTG for an 3-4 additional hrs, cells were harvested and suspended in 1% NP40, PI, PMSF, 1 mM DTT, 50 mM Tris-HCl, pH 7.5. Cells were disrupted by sonication. GST-Galectin-3 was bound to glutathione-agarose (Genscript Cat #L00207) overnight at 4° C. Beads were washed 4× in lysis buffer, then suspended in 50 mM Tris-HCl pH 7.5, 0.1 mM DTT and treated with 60 u thrombin/ml (Fisher Cytiva Thrombin Protease) for 16 hrs at RT. The supernatant containing Galectin-3 protein was treated with benzamidine sepharose (Sigma, HiTrap Benzamidine FF) to bind and remove thrombin. Protein was concentrated using an Amicon 3K filter and used in 20 mM potassium phosphate buffer pH 6.8, 0.1 mM DTT for NMR. Protein concentrations were determined by BCA.
NMR. ^15N-^1H HSQC 700 MHz spectra were acquired with 20 μM Galectin-3 CTD [in 20 mM potassium phosphate buffer, pH 6.8, 0.1 mM DTT] and different molar ratios of added peptide-3 as indicated in FIG. 5. The chemical shift perturbation (CSP) 06 was calculated using the following equation: Δ\ delta=√{square root over ((ΔωN^2+ΔωH^2)/2)}. The ΔωN and ΔωH are the nitrogen and proton chemical shift difference between free ^15N-CTD and that in the mixture with P3 peptide. Assignments are based on the Galectin-3 CTD NMR data of Ippel (25) and Umemoto (39). […] Because L135 and W181 patterns differ between Ippel and Umemoto, their assignments could not be unambiguously determined. […]

[3] = target: T3, GST-Gal3 L131A (Homo sapiens, UniProt P17931, L131A); assay: agglutination assay with GST-Gal3 L131A mutant; format: cell-based; details: LAX56 cells
T3 construct: Full-length human GST-Galectin-3 (hereafter named GST-Gal3) in pGEX2T was previously described; made in house; host or cells: E. coli BL21(DE3)
Description: (§1) Cells, culture and agglutination assay. LAX56 human pre-B ALL cells were routinely co-cultured with mitomycin-C inactivated OP9 stromal cells. These previously described primary leukemia cell grew directly out from a relapse bone marrow sample (36, 37). For agglutination assays, cells were harvested, washed once in α-MEM medium, resuspended in 10 ml X-VIVO 15 medium (Lonza) and incubated at 37° C. for 24 h remove the Galectin-3 produced by OP9 stromal cells. For the assay, ALL cells were resuspended in X-VIVO 15 medium at a concentration of 1×10^6/ml and seeded at 2×10^5/200 μl cells into wells. GST (12.5 μg/ml) or GST-Galectin-3 (25 μg/ml or 150 μg/ml, two different isolates) recombinant proteins were added in 300 μl X-VIVO 15 medium to duplicate wells. Peptides, if included, were preincubated for 5 minutes with the recombinant proteins and added at different concentrations as indicated in the figures. TD139 was purchased from MedChemExpress and used at 100 μM. Phase contrast images were taken after 1-2 hours. Agglutination was defined as aggregates containing >10 cells per cluster. 2-13 images from different areas were taken and evaluated for cell clusters per condition. Biological data were graphed with GraphPad Prism software (version8.3.1). Values represent mean±SEM of the number of aggregates scored per independent image.
(§2) GST-Galectin-3 and mutants. […]

[4] = target: T4, GST-Gal3 L203A (Homo sapiens, UniProt P17931, L203A); assay: agglutination assay with GST-Gal3 L203A mutant; format: cell-based; details: LAX56 cells
T4 construct: Full-length human GST-Galectin-3 (hereafter named GST-Gal3) in pGEX2T was previously described; made in house; host or cells: E. coli BL21(DE3)
Description: as §1, §2

[5] = GST-Gal3, 1-2 hours, peptide preincubated 5 minutes with protein

T1 sequence (P17931 2-250): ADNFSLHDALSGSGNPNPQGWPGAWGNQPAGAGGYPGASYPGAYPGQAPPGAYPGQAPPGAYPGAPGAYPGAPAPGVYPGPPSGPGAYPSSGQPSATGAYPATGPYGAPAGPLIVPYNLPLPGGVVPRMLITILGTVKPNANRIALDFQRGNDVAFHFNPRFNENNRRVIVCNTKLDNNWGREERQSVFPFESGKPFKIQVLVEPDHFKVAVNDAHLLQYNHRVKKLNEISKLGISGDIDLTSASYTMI
T2 sequence (P17931 117-250): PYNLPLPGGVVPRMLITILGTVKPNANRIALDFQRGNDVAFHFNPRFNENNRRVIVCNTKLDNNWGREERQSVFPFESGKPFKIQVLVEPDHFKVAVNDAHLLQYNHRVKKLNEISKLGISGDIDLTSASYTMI
T4 sequence (P17931 whole entry L203A): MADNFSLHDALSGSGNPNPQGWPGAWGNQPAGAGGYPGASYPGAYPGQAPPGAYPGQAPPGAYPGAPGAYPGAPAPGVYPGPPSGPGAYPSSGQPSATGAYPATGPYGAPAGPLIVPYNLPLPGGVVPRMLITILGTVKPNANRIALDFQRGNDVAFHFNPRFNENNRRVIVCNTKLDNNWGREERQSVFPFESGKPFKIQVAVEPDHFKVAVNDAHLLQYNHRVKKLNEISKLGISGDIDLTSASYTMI
T3 sequence (P17931 whole entry L131A): as the sequence (P17931 whole entry L203A) above, with L131A, A203L counted along it

With `OC[C@H]1O[C@@H](S[C@@H]2O[C@H](CO)[C@H](O)[C@H](n3cc(-c4cccc(F)c4)nn3)[C@H]2O)[C@H](O)[C@@H](n2cc(-c3cccc(F)c3)nn2)[C@H]1O` [TD139, 3-deoxy-3-[4-(3-fluorophenyl)-1H-1,2,3-triazol-1-yl]-β-D-galactopyranosyl 3-deoxy-3-[4-(3-fluorophenyl)-1H-1,2,3-triazol-1-yl]-1-thio-β-D-galactopyranoside, reference compound] the “effect on Galectin-3-mediated agglutination” value (“effect” below) ([1]; GST-Gal3, 100 μM, positive control) was “clearly inhibited”.
“ACE-ARAMGYPGASY-NH2 (Ac-ARAMGYPGASY-NH2) [Peptide 1]” was tested, and the “effect” value [1, 5] was “had no effect on agglutination”.
For “ACE-YYPGAYPRRYR-NH2 (Ac-YYPGAYPRRYR-NH2) [Peptide 3]”, the “contacts with the CTD by NMR” value ([2]; 20 μM 15N CTD, up to 100:1 peptide:CTD) was “makes extensive contacts with amino acids in the CTD”, the “shift of S-face residues R186, K227 or Y221 upon exposure” value ([2]; data not shown) was “no shift” and the “chemical shift perturbation (CSP) of residue T248” value ([2]; one unit of RMSD) was “about 10.9 Hz”. For the same molecule, the “effect” value [1, 5] was “positive hit”, the “effect” value ([1]; GST-Gal3, 1-2 hours, peptide preincubated 5 minutes with protein, listed as P3) was “efficiently inhibits” and the “effect” value ([1]; GST-Gal3, 1-2 hours, peptide preincubated 5 minutes with protein, listed as YYPGAYPRRYR) was “inhibits Galectin-3 mediated agglutination”. For the same molecule, the “effect” value ([1]; GST-Gal3, 1-2 hours, peptide preincubated 5 minutes with protein, listed as peptide 3) was “inhibits agglutination”, the “effect” value ([1]; GST-Gal3, 1-2 hours, peptide preincubated 5 minutes with protein, listed as peptide-3) was “clearly was inhibitory” and the “inhibition of agglutination mediated by the L131A mutant” value [3] was “largely insensitive to inhibition”. For the same molecule, the “inhibition of agglutination mediated by the L203A mutant” value [4] was “could still be inhibited”.
In the case of “ANTPCGPYTHDCPVKR [Peptide-4, reference compound]”, the “effect” value [1, 5] is reported as “did not have an effect”.
“N-terminal acetyl-ARAFGYPIYSY-C-terminal amide (Ac-ARAFGYPIYSY-NH2) [Peptide 2]” was tested, and the “effect” value [1, 5] was “had no effect on agglutination”.
For “PTHVTCKYCPAGNRDP [Peptide-5, scrambled negative control peptide described in the same study, reference compound]”, the “effect” value [1, 5] was “did not have an effect”.
